According to patent US20160272683A1 (Novo Nordisk, published 2016):
Values belong to the binder of their own block, whether it stands above or below them. Numbered stars: 1 amine (or outer) side, 2 acyl side, 3 side chain; on linkers, the order of the positions; unused ones are H or OH. * marks the point of attachment. C20 diacid = O=C(O)CCCCCCCCCCCCCCCCCCC(=O)*; γGlu = O=C(O)[C@H](CCC(=O)[*:2])N[*:1]

Tests used:
[1] = target: T1, human amylin receptor (human calcitonin receptor + human RAMP3) (human) (UniProt P30988); test: whole-cell competition vs 125I-rat amylin (Assay Va)
T1 sequence (looked up) 1: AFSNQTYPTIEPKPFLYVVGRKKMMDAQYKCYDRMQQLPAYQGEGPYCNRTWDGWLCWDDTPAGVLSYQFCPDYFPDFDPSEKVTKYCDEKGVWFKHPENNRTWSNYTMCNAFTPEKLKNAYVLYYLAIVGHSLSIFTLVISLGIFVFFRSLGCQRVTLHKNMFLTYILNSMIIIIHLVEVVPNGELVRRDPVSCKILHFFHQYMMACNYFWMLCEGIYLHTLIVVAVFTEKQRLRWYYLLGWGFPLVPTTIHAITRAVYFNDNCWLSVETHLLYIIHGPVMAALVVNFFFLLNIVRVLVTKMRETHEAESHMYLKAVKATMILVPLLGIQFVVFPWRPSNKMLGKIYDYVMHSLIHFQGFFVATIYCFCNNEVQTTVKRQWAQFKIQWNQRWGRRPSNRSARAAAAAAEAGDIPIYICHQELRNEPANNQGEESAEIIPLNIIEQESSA
T1 sequence (looked up) 2: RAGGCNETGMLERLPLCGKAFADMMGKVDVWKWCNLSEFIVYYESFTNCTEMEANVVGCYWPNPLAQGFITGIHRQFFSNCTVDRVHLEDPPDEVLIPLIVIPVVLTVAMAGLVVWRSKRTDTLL

[2] = target: rat calcitonin receptor (rat) (UniProt P32214); test: SPA competition vs 125I-calcitonin, membranes with rat CTR (Assay VIII)
[3] = target: rat amylin receptor (rat calcitonin receptor with rat RAMP 3) (rat) (UniProt P32214); test: SPA competition vs 125I-rat amylin, membranes with rat CTR + rat RAMP3 (Assay VI)

IC50 [1]: 1.23 nM
IC50 [2]: 0.044 nM
IC50 [3]: 0.025 nM
B1: [N-terminal(C20 diacid-gGlu), 1A, 23Y, 30S, 31G]mimylin (peptide)
peptide: {C20 diacid-γGlu}-AASELSTAALGRLSAELHELATYPRTETGSGSP-NH2
SMILES: CC(C)C[C@H](NC(=O)[C@H](C)NC(=O)[C@H](C)NC(=O)[C@@H](NC(=O)[C@H](CO)NC(=O)[C@H](CC(C)C)NC(=O)[C@H](CCC(=O)O)NC(=O)[C@H](CO)NC(=O)[C@H](C)NC(=O)[C@H](C)NC(=O)CC[C@H](NC(=O)CCCCCCCCCCCCCCCCCCC(=O)O)C(=O)O)[C@@H](C)O)C(=O)NCC(=O)N[C@@H](CCCNC(=N)N)C(=O)N[C@@H](CC(C)C)C(=O)N[C@@H](CO)C(=O)N[C@@H](C)C(=O)N[C@@H](CCC(=O)O)C(=O)N[C@@H](CC(C)C)C(=O)N[C@@H](Cc1c[nH]cn1)C(=O)N[C@@H](CCC(=O)O)C(=O)N[C@@H](CC(C)C)C(=O)N[C@@H](C)C(=O)N[C@H](C(=O)N[C@@H](Cc1ccc(O)cc1)C(=O)N1CCC[C@H]1C(=O)N[C@@H](CCCNC(=N)N)C(=O)N[C@H](C(=O)N[C@@H](CCC(=O)O)C(=O)N[C@H](C(=O)NCC(=O)N[C@@H](CO)C(=O)NCC(=O)N[C@@H](CO)C(=O)N1CCC[C@H]1C(N)=O)[C@@H](C)O)[C@@H](C)O)[C@@H](C)O

IC50 [1]: 1.07 nM
IC50 [2]: 0.02 nM
IC50 [3]: 0.046 nM
B2: [N-terminal(C20 diacid-gGlu), des1, 30S, 31G, 33H]mimylin (peptide)
peptide: {C20 diacid-γGlu}-ASELSTAALGRLSAELHELATLPRTETGSGSH-NH2
SMILES: CC(C)C[C@H](NC(=O)[C@H](C)NC(=O)[C@H](C)NC(=O)[C@@H](NC(=O)[C@H](CO)NC(=O)[C@H](CC(C)C)NC(=O)[C@H](CCC(=O)O)NC(=O)[C@H](CO)NC(=O)[C@H](C)NC(=O)CC[C@H](NC(=O)CCCCCCCCCCCCCCCCCCC(=O)O)C(=O)O)[C@@H](C)O)C(=O)NCC(=O)N[C@@H](CCCNC(=N)N)C(=O)N[C@@H](CC(C)C)C(=O)N[C@@H](CO)C(=O)N[C@@H](C)C(=O)N[C@@H](CCC(=O)O)C(=O)N[C@@H](CC(C)C)C(=O)N[C@@H](Cc1c[nH]cn1)C(=O)N[C@@H](CCC(=O)O)C(=O)N[C@@H](CC(C)C)C(=O)N[C@@H](C)C(=O)N[C@H](C(=O)N[C@@H](CC(C)C)C(=O)N1CCC[C@H]1C(=O)N[C@@H](CCCNC(=N)N)C(=O)N[C@H](C(=O)N[C@@H](CCC(=O)O)C(=O)N[C@H](C(=O)NCC(=O)N[C@@H](CO)C(=O)NCC(=O)N[C@@H](CO)C(=O)N[C@@H](Cc1c[nH]cn1)C(N)=O)[C@@H](C)O)[C@@H](C)O)[C@@H](C)O

IC50 [1]: 2.61 nM
IC50 [2]: 0.202 nM
IC50 [3]: 3.99 nM
B3: [N-terminal(C20 diacid-gGlu), des1, 23Y, 30S, 31G]mimylin (peptide)
peptide: {C20 diacid-γGlu}-ASELSTAALGRLSAELHELATYPRTETGSGSP-NH2
SMILES: CC(C)C[C@H](NC(=O)[C@H](C)NC(=O)[C@H](C)NC(=O)[C@@H](NC(=O)[C@H](CO)NC(=O)[C@H](CC(C)C)NC(=O)[C@H](CCC(=O)O)NC(=O)[C@H](CO)NC(=O)[C@H](C)NC(=O)CC[C@H](NC(=O)CCCCCCCCCCCCCCCCCCC(=O)O)C(=O)O)[C@@H](C)O)C(=O)NCC(=O)N[C@@H](CCCNC(=N)N)C(=O)N[C@@H](CC(C)C)C(=O)N[C@@H](CO)C(=O)N[C@@H](C)C(=O)N[C@@H](CCC(=O)O)C(=O)N[C@@H](CC(C)C)C(=O)N[C@@H](Cc1c[nH]cn1)C(=O)N[C@@H](CCC(=O)O)C(=O)N[C@@H](CC(C)C)C(=O)N[C@@H](C)C(=O)N[C@H](C(=O)N[C@@H](Cc1ccc(O)cc1)C(=O)N1CCC[C@H]1C(=O)N[C@@H](CCCNC(=N)N)C(=O)N[C@H](C(=O)N[C@@H](CCC(=O)O)C(=O)N[C@H](C(=O)NCC(=O)N[C@@H](CO)C(=O)NCC(=O)N[C@@H](CO)C(=O)N1CCC[C@H]1C(N)=O)[C@@H](C)O)[C@@H](C)O)[C@@H](C)O

IC50 [1]: 0.697 nM
IC50 [2]: 0.085 nM
IC50 [3]: 1.53 nM
Binder: {C20 diacid-γGlu}-ASELSTAALGHLSAELHELATLPRTETGSGSP-NH2 [[N-terminal(C20 diacid-gGlu), des1, 12H, 30S, 31G]mimylin]
